According to patent publication US20210252145A1 (CELLASTER, published 2021):

Legend:
[1] = target: T1, Δ619-624 of EPB41L5 (Flag-tagged deletion construct) (human, UniProt Q9HCM4 1-733); assay: immunofluorescent staining of MKN28 cells co-transfected with EPB41L5 siRNA and construct
T1 construct: also called A619-624; not shown: Flag tag from vector pSG5-KF2M1-Flag
Description: At this time, the immunofluorescent staining was performed using anti-EPB41L5 mAb and anti-Flag antibodies. Green represents EPB41L5, red represents Flag tag, blue represents Hochest, and scale bars represent 20 μm.
Considering the characteristics of nonpermeabilized immunofluorescent staining, in order to inhibit expression of endogenous EPB41L5, cells were co-transfected with EPB41L5 siRNA and any one plasmid selected from among FL (full length) of EPB41L5, FERM of EPB41L5, C-terminus of EPB41L5 and Δ619-624 of EPB41L5. Then, expression of exogenous EPB41L5 was analyzed using anti-Flag antibody. EPB41L5 expression was detected in […] transfected with FL and C-terminal constructs and in MKN28 cells […] with A619-624 (FIG. 6H).

[2] = target: T2, FERM of EPB41L5 (N-terminal FERM domain construct, Flag-tagged) (human, UniProt Q9HCM4 43-327); assay: Western blot of transfected 293T cells
T2 construct: the real construct is only its N-terminal FERM domain; not shown: Flag tag from vector pSG5-KF2M1-Flag
T2 sequence (Q9HCM4 43-327): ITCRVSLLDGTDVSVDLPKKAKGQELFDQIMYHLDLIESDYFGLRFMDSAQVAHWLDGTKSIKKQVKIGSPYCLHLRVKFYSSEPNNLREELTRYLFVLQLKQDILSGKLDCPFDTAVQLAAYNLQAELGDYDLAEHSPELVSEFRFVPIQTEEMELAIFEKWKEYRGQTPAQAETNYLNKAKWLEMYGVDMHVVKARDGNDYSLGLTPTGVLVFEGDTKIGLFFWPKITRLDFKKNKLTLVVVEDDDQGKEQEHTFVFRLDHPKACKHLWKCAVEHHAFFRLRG

T1 sequence (Q9HCM4 other isoform, or with tags, fused parts or gaps mutant): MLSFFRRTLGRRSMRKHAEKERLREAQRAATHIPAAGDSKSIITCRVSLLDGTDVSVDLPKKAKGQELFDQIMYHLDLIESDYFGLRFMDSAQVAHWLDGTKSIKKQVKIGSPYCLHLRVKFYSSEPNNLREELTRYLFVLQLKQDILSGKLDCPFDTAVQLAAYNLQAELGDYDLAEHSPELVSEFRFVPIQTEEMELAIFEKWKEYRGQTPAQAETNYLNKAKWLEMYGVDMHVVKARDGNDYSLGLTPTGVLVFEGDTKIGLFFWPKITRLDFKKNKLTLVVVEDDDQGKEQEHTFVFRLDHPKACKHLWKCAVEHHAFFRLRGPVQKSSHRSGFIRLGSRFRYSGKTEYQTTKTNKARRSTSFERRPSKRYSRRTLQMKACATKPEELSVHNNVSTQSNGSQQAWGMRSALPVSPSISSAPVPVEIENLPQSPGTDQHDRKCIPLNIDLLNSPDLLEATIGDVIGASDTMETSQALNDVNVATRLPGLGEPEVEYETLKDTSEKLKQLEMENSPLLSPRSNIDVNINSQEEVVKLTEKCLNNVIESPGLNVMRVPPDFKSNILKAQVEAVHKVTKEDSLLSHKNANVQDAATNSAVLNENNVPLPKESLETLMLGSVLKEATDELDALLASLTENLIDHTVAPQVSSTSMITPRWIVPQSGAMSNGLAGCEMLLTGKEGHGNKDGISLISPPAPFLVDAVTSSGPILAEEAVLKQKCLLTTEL

binding result [1]: no binding | binding result [2]: no binding
B1: anti-EPB41L5 monoclonal antibody (antibody, V domains shown)
VH: QVQLKESGTVLARPGASVKMSCKASGYTFTSYWMHWVKQRPGQGLEWIGAIYPGNSDTSYNQKFKDKAKLTAVTSTSTAYMELSSLTDEASAVYYCTRGGKLPFAMDYWGQGTSVTVSS
VL: DVLMTQTPLSLPVSLGDQASMSCRSSQSLVHSNGNTYLHWYLQKPGQSPKLLIYKVSNRFSGVPDRFSGSGSGTDFTLKISRVEAEDLGVYFCSQSTHVPWTFGGGTKLEIK
notes: also called anti-EPB41L5 mAb; EPB41L5 mAb
